Measured values as given in article PMC6326804, “Structural insights into a unique preference for 3′ terminal guanine of mirtron in Drosophila TUTase tailor” (Nucleic Acids Research, 2018).

Assays:
Tailor-C [1] = target: T1, Tailor-C (Drosophila melanogaster, UniProt Q9VI58, D343A); experiment: X-ray crystal structure (crystal soaking), […] A; assay type: binding; conditions: D343A crystals soaked with 10 mM UTP and 20 mM MgCl2 for 10 min; active site of catalytic groove
T1 construct: core catalytic domain, residues 202-560; N-terminal 8xHis-SUMO tag cut by ULP1; E. coli host

Tailor-ZnC = target: T2, Tailor-ZnC (Drosophila melanogaster, UniProt Q9VI58); experiment: in-vitro nucleotide transferase assay, denaturing PAGE of Cy5-labelled RNA; assay type: biochemical; conditions: 1 mM UTP, 200 nM Cy5 truncated pre-mir-1003, 10 mM MgCl2, pH 7.2, 25 °C
T2 construct: core domain with possible N-terminal C2H2 zinc finger, residues 137-560; N-terminal 8xHis-SUMO tag cut by ULP1; E. coli host

Tailor-C V328L = Tailor-C V328L (Drosophila, UniProt Q9VI58 202-560, V328L); experiment: EMSA; no Mg2+ added; EMSA: 25 mM Tris-HCl pH 7.2, 100 mM NaCl, 5 mM DTT, 500 nM Cy5-RNA, 0-2.5 uM protein, 30 min on ice; 6% native gel at 4 C; conditions: protein: recombinant; tags: 8xHis-SUMO tag removed by ULP1; label: 5'-Cy5; single strand
Tailor-C V328I = Tailor-C V328I (Drosophila, UniProt Q9VI58 202-560, V328I); experiment: as above; conditions: protein: recombinant; tags: 8xHis-SUMO tag removed by ULP1; label: 5'-Cy5; single strand
Tailor-C V328R = Tailor-C V328R (Drosophila, UniProt Q9VI58 202-560, V328R); experiment: as above; conditions: protein: recombinant; tags: 8xHis-SUMO tag removed by ULP1; label: 5'-Cy5; single strand
Tailor-C [2] = target: Tailor-C (Drosophila, UniProt Q9VI58 202-560); experiment: crystal structure; EMSA: 25 mM Tris-HCl pH 7.2, 100 mM NaCl, 5 mM DTT, 500 nM Cy5-RNA, 0-2.5 uM protein, 30 min on ice; 6% native gel at 4 C; conditions: protein: recombinant; tags: 8xHis-SUMO tag removed by ULP1; single strand
Sequence of Tailor-C (Drosophila, UniProt Q9VI58 202-560) (Q9VI58 202-560): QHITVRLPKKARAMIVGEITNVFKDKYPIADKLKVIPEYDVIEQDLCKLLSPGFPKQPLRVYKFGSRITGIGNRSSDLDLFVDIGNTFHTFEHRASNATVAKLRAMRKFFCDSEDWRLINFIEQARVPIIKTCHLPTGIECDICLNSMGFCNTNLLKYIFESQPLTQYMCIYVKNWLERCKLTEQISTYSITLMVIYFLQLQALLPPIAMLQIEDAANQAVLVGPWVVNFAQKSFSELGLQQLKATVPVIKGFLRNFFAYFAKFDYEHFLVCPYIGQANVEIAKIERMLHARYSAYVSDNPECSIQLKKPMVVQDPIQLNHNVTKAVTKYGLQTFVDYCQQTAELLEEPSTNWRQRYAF

T2 sequence (Q9VI58 137-560): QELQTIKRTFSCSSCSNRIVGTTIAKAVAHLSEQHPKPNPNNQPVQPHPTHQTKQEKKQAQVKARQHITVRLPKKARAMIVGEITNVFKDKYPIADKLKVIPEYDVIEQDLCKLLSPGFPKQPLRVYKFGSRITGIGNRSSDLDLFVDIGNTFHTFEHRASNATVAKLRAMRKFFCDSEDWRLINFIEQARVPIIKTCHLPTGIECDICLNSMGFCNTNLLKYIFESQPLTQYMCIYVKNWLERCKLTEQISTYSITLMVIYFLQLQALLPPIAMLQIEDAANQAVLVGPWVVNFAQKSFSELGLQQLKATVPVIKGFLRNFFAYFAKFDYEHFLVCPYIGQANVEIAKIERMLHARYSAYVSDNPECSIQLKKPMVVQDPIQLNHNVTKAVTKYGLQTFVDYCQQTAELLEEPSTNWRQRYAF
T1 sequence (Q9VI58 202-560 D343A): as the sequence (Q9VI58 202-560) above, with D142A counted along it
Sequence of Tailor-C V328R (Q9VI58 202-560 V328R): as the sequence (Q9VI58 202-560) above, with V127R counted along it
Sequence of Tailor-C V328L (Q9VI58 202-560 V328L): as the sequence (Q9VI58 202-560) above, with V127L counted along it
Sequence of Tailor-C V328I (Q9VI58 202-560 V328I): as the sequence (Q9VI58 202-560) above, with V127I counted along it

Molecule: O=c1ccn([C@@H]2O[C@H](COP(=O)(O)OP(=O)(O)OP(=O)(O)O)[C@@H](O)[C@H]2O)c(=O)[nH]1 [UTP]
- X-ray crystal structure (crystal soaking), 1.74 A (Tailor-C [1]): The crystals of the complex of D343A with UTP were obtained by soaking crystals
- in-vitro nucleotide transferase assay, denaturing PAGE of Cy5-labelled RNA (Tailor-ZnC): Purified Tailor-ZnC, Tailor-C and mutants were assayed for oligouridylation activity

Molecule: CAUAUUCACAG (ssRNA) [truncated miR-1003 (3'G)]
- binding result (Tailor-C V328L): binds
- binding result (Tailor-C V328I): binds
- binding result (Tailor-C V328R): binds

Molecule: UUUU (ssRNA) [U4]
- binding result (Tailor-C [2]): binds

Molecule: AGU (ssRNA)
- binding result (Tailor-C [2]): binds

Molecule: AGUU (ssRNA)
- binding result (Tailor-C [2]): binds
